Experimental findings from the supplement of paper PMC9112550, “Optimization of the antimicrobial peptide Bac7 by deep mutational scanning” (BMC Biology, 2022) are described below.
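Note: peptides expressed intracellularly from a pBAD plasmid library in pooled LB shake-flask culture, induced with 0.3% L-arabinose, DNA abundance read by NGS, three biological replicates, DESeq2 with apeglm shrinkage.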

This data set has as its system Escherichia coli TOP10. The data set can be described thus: shrunken log2 fold change of peptide-encoding DNA abundance (4.5 h post-induction vs induction); higher = less antimicrobial activity (less host growth inhibition). As to conditions: time post-induction: 4.5 h; library: site-saturation at positions 5, 18, 19, 20.
For RRIRVRPPRLPRPRPRPYSTPRP, the “shrunken log2 fold change” value is -0.00968.

For RRIRYRPPRLPRPRPRPPASPRP, the “shrunken log2 fold change” value was 0.249.

Regarding RRIRSRPPRLPRPRPRPANSPRP, the “shrunken log2 fold change” value is -0.564.

For the sequence RRIRSRPPRLPRPRPRPHKWPRP, the “shrunken log2 fold change” value is -0.296.

Consider RRIRGRPPRLPRPRPRPDEGPRP, for which the “shrunken log2 fold change” value is -0.001.

Take RRIRKRPPRLPRPRPRPARDPRP: the “shrunken log2 fold change” value came out at 1.1.

With RRIRMRPPRLPRPRPRPMLQPRP, the “shrunken log2 fold change” value was determined as 0.196.

Take RRIRYRPPRLPRPRPRPGFMPRP: the “shrunken log2 fold change” value was -0.279.

Regarding RRIRYRPPRLPRPRPRPWTAPRP, the “shrunken log2 fold change” value is -0.283.

For RRIRERPPRLPRPRPRPPATPRP, the “shrunken log2 fold change” value worked out at 0.35.

Regarding RRIRWRPPRLPRPRPRPMDDPRP, the “shrunken log2 fold change” value was -0.172.

For RRIRMRPPRLPRPRPRPDVEPRP, the “shrunken log2 fold change” value was 3.52.

For RRIRMRPPRLPRPRPRPSDVPRP, the “shrunken log2 fold change” value turned out to be 0.141.

As for RRIRYRPPRLPRPRPRPFLWPRP, the “shrunken log2 fold change” value is -0.0621.

For the sequence RRIRARPPRLPRPRPRPPTEPRP, the “shrunken log2 fold change” value amounted to 1.2.

On to RRIRGRPPRLPRPRPRPQHYPRP, for which the “shrunken log2 fold change” value is -0.167.

As for RRIRNRPPRLPRPRPRPHEPPRP, the “shrunken log2 fold change” value was 0.247.

With RRIRFRPPRLPRPRPRPEQNPRP, the “shrunken log2 fold change” value was 0.264.

On to RRIRFRPPRLPRPRPRPEIHPRP, for which the “shrunken log2 fold change” value is -0.227.

Regarding RRIRPRPPRLPRPRPRPECNPRP, the “shrunken log2 fold change” value was -0.0298.

Regarding RRIRVRPPRLPRPRPRPPPWPRP, the “shrunken log2 fold change” value is 0.758.

For RRIRMRPPRLPRPRPRPPANPRP, the “shrunken log2 fold change” value stood at 1.17.

Regarding RRIRRRPPRLPRPRPRPMPKPRP, the “shrunken log2 fold change” value turned out to be 0.0841.

Regarding RRIRWRPPRLPRPRPRPRKRPRP, the “shrunken log2 fold change” value was 0.726.

Consider RRIRPRPPRLPRPRPRPTSCPRP, for which the “shrunken log2 fold change” value was determined as 0.193.

For RRIRVRPPRLPRPRPRPVSDPRP, the “shrunken log2 fold change” value was -0.0859.

For the sequence RRIRLRPPRLPRPRPRPKESPRP, the “shrunken log2 fold change” value is 0.0595.

For RRIRCRPPRLPRPRPRPTVFPRP, the “shrunken log2 fold change” value was found to be 0.197.

For the sequence RRIRKRPPRLPRPRPRPRFWPRP, the “shrunken log2 fold change” value was 1.42.

RRIRFRPPRLPRPRPRPITQPRP: the “shrunken log2 fold change” value was -0.278.

Turning to RRIRMRPPRLPRPRPRPFPPPRP, the “shrunken log2 fold change” value was found to be 0.103.

As for RRIRIRPPRLPRPRPRPQFYPRP, the “shrunken log2 fold change” value was -0.945.

RRIRYRPPRLPRPRPRPNIQPRP: the “shrunken log2 fold change” value is -1.58.

Take RRIRHRPPRLPRPRPRPDMIPRP: the “shrunken log2 fold change” value is -0.0018.

As to RRIRSRPPRLPRPRPRPEEMPRP, the “shrunken log2 fold change” value is -0.0122.

For RRIRLRPPRLPRPRPRPEACPRP, the “shrunken log2 fold change” value is -0.0158.

With RRIRCRPPRLPRPRPRPVYGPRP, the “shrunken log2 fold change” value is -0.747.

Regarding RRIRMRPPRLPRPRPRPYPEPRP, the “shrunken log2 fold change” value was -0.121.

In the case of RRIRQRPPRLPRPRPRPGGTPRP, the “shrunken log2 fold change” value stood at 0.11.

Take RRIRSRPPRLPRPRPRPQACPRP: the “shrunken log2 fold change” value came to 0.125.

With RRIRIRPPRLPRPRPRPEPGPRP, the “shrunken log2 fold change” value was 0.253.

For RRIRHRPPRLPRPRPRPGDFPRP, the “shrunken log2 fold change” value was -0.147.

Take RRIRARPPRLPRPRPRPCQVPRP: the “shrunken log2 fold change” value was -0.47.

In the case of RRIRHRPPRLPRPRPRPKHVPRP, the “shrunken log2 fold change” value is -0.15.

With RRIRERPPRLPRPRPRPFDEPRP, the “shrunken log2 fold change” value was -0.433.

Turning to RRIRCRPPRLPRPRPRPMRMPRP, the “shrunken log2 fold change” value worked out at 0.22.

On to RRIRGRPPRLPRPRPRPGDFPRP, for which the “shrunken log2 fold change” value was found to be 0.00388.

RRIRKRPPRLPRPRPRPEYGPRP: the “shrunken log2 fold change” value is 0.087.

For the sequence RRIRWRPPRLPRPRPRPMQPPRP, the “shrunken log2 fold change” value is 0.185.

With RRIRCRPPRLPRPRPRPGILPRP, the “shrunken log2 fold change” value was -0.233.

As for RRIRMRPPRLPRPRPRPRHGPRP, the “shrunken log2 fold change” value is 0.83.

For RRIRQRPPRLPRPRPRPLKNPRP, the “shrunken log2 fold change” value is -0.237.

As for RRIRQRPPRLPRPRPRPIETPRP, the “shrunken log2 fold change” value was determined as 0.00824.

In the case of RRIRGRPPRLPRPRPRPRLAPRP, the “shrunken log2 fold change” value was 1.35.

With RRIRERPPRLPRPRPRPMTLPRP, the “shrunken log2 fold change” value is -0.000163.

For the sequence RRIRPRPPRLPRPRPRPMGAPRP, the “shrunken log2 fold change” value is 0.117.

Consider RRIRWRPPRLPRPRPRPLAQPRP, for which the “shrunken log2 fold change” value is 0.469.

For the sequence RRIRGRPPRLPRPRPRPYMWPRP, the “shrunken log2 fold change” value was -0.361.

As for RRIRRRPPRLPRPRPRPPTQPRP, the “shrunken log2 fold change” value came to 0.678.

Regarding RRIRWRPPRLPRPRPRPFGQPRP, the “shrunken log2 fold change” value is -0.0338.

Turning to RRIRCRPPRLPRPRPRPTPHPRP, the “shrunken log2 fold change” value was determined as 0.821.

In the case of RRIRRRPPRLPRPRPRPSAIPRP, the “shrunken log2 fold change” value was 0.0689.
